{"source": "the nanobody polyreactivity screen of Harvey et al. (2022)", "data": [{"experiment": "yeast display, Sf9 membrane polyspecificity reagent, FACS + sequencing; frameworks hold sequencing errors", "procedure,_shortened": "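After 36–48 hours of galactose induction, yeast (Saccharomyces cerevisiae BJ5465) displaying a synthetic nanobody library were stained at 4 °C for 1 hour with 10% biotinylated, detergent-solubilized Sf9 membrane reagent. Streptavidin microbeads enriched the stained cells before FACS sorting into low and high (top ~1%) gates on anti-HA and streptavidin fluorescence. Each clone's polyreactivity label reflects its gate of origin.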", "values": [{"sequence": "QVQLVESGGGLVQAGGSLRLSCAASGRTFFHNPMGWYRQAPGKERELVAAISSGGGTYADSVKGRFTISRDNAKNTVYLQINSLKPEDTAVYYCAATLYNTEDDYWGQGTQVTVSS", "polyreactivity (PSR sort gate)": "low polyreactivity"}, {"sequence": "QVQLVESGGGLVQAGGSLRLSCAASGFIFVSYAMGWYRQAPGKERELVAAIDRIGGITYYADSVKGRFTIARDIAKNTVYLQMNSLKPEDTAVYYCAAAARYATVRVGREYYWGQGTQVTVSS", "polyreactivity (PSR sort gate)": "low polyreactivity"}, {"sequence": "QVQLVESGGGLVQAGGSLRLSCAASGITFGYYAMGWYRQAPGKEREMVAAISFTGASTYYADSVKGRFTISRDNAKNTVYLQMNSLKPEDTAVYYCAADPYVPYQDFLSGFDYWGQGTQVTVSS", "polyreactivity (PSR sort gate)": "low polyreactivity"}, {"sequence": "QVQLVESGGGLVQAGGSLRLSCAASVYTFSKNTMGWYRQAPGKEREFVAAINWSGGSTYYADSVKGRFTISRDNAKNTVYLQMNSLKPEDTAVYYFAARRGGRRGYDYWGQGTQVTVSS", "polyreactivity (PSR sort gate)": "high polyreactivity"}, {"sequence": "QVHLQERGGGLVQAGGSLRLSCAASGSIFYWPWMGWYRQAPGREREFVATITTGSNTYYADSMKGHLTNSRDNAINTVYLQMISQKPEDTAVYFCAVVGDGEIEHRYWGQGTQVTVSS", "polyreactivity (PSR sort gate)": "high polyreactivity"}, {"sequence": "QVQLVESWGGLVQAGGSLRLICAASRGTFRVYAMGWYRQAPVKERELVAAITWRGGRTYYADSVKGRFTISRDNAKNTVYLQMNSLKPEDTAVYYCAADRYGDLYDYWGQGTQVTVSS", "polyreactivity (PSR sort gate)": "high polyreactivity"}, {"sequence": "QVQLVESGGGLVQAGGSLRLSCAASGFIFRHNAMGWYRQAPGKEREFVAAISISGGSTYYADSVKGRFTISRDNAKNTVDLQMNSLKPEDTAVYYCNARSLGNTYLLYDYWGQGTQVTVSS", "polyreactivity (PSR sort gate)": "low polyreactivity"}, {"sequence": "QVQLVASGGGLVQAGGSLRLSCAATGNTLGYYDMGWYRQAPGKERELVAGITFRGGRTYYADSVKGRFTISRDNPKNTVYLQMKSLKPEDTAVYYCAKRTRYSPGHDYWGLGTQVTVSS", "polyreactivity (PSR sort gate)": "high polyreactivity"}, {"sequence": "QVQLVESGGGLVQAGGSLRLSCAASGSTLAVYAMGWYRQAPGKEREFVAAISWSGVSTYYADSVKGRFTISRDNAKNTVYLQMNSLKPEDTAVYYCAAKRVRALYGGSEGGYWGQGTQVTVSS", "polyreactivity (PSR sort gate)": "low polyreactivity"}, {"sequence": "QVQLVESGGGLVQAGGSLRLSCAASGRIFDLNAMGWYRQAPGKERELVAAISYSGGRTFYADSVKGRFTISRDNAKNTVYLQMNSLKPEDTAVYYCNARYGKPAYQYRMDYWGQGTQVTVSS", "polyreactivity (PSR sort gate)": "low polyreactivity"}, {"sequence": "QVQLVESGGGLVQAGGSLRLSCAASGSTFIGNAMGWYRQAPGKERELVAAITSSGGSTYYADSVKGRFTISRDNAKNTVYLQMNSLKPEDTAVYYCAAKSRRTRRSYYWGQGTQVTVSS", "polyreactivity (PSR sort gate)": "high polyreactivity"}, {"sequence": "QVQLVESGGGLVQARGSLRLSCAASVSTFGGNAMGWYRQAPGKERQLVAAISCIGGGTYYADSVKGRFTISRDNAKNTVYLQMKSLKPEYTAVYYCAAKIFIRVHYYSYRMYYWGQGTQLTVSS", "polyreactivity (PSR sort gate)": "low polyreactivity"}, {"sequence": "QVQLVESGGGLVQAGGSLRFSCSASGRTFLIYAMGWYRQAPGKARELVAAINFSGGNTYYADSVKGRFTISRDNAKNTVYLQMNSLKPEDTAVYYCAAGVYSFRYDYWGQGTQVTVSS", "polyreactivity (PSR sort gate)": "low polyreactivity"}, {"sequence": "QVQLVESGGVLVQAGGSLRLSCAASGSIFSGYSMGWYRQAPGKERELVAAITWNGGSTYYADSVKGRFTISRDNAKNTVYLQMNILKPEDTAVYYCAAERAARFNYWGQGTQVTVSS", "polyreactivity (PSR sort gate)": "high polyreactivity"}, {"sequence": "QVQLVESGGGLVQAGGSLRLSCAASGRIFGNNAMGLYRQAPGKERELVAAIRRGGSTYYADSVKGRFTISRDNAKNTVYLQMNSLKPEDTAVYYCAADSSRKHFYWGQGTQVTVSS", "polyreactivity (PSR sort gate)": "high polyreactivity"}, {"sequence": "QVQLVESGGGLVQAGGSLRLSCAASGYTFHGYAMGWYRQAPGKESELVAVITQRGGSTSYADSVKGRFTISRDNAKITVYLQMNSLKPEDTAVYYCNASAWLVVARTRYGYWGQGTQVTVSS", "polyreactivity (PSR sort gate)": "low polyreactivity"}, {"sequence": "QVQLVESGGGLVQAGGSLRLSCAASGSIFKYYAMGWYRQAPGKERELVAAISSSGGSTYYADSVKWRFTISRDNAKNTVYLQMNSLKPEDTAVYYCNTPYIWKNYDYWGQGTQVTVSS", "polyreactivity (PSR sort gate)": "high polyreactivity"}, {"sequence": "QVQLVESGGGLVQAGGSLRLSCAASGRTFSRYAMGCYRQAPGKERELVAVITSSGASTYYADSVKGRFTISRDNAKNTVYLQMNSLKPEDTAVYYCAADRYYRGRRMNYWRQGTQVTVSS", "polyreactivity (PSR sort gate)": "high polyreactivity"}, {"sequence": "QVQLVESGGGLVQAGGSLRLSCAASGRTFGKNAMGWYRQAPGKEREFVAAITSRGGSTYYADSVKGRFTISRDNAKNTVYLQMNSLKAEDTAVYYCNREYIRPSQRTEHYYWGQGTQVTVSS", "polyreactivity (PSR sort gate)": "low polyreactivity"}, {"sequence": "QVQLVESGGGLVQAAGSLRLSCAASGRTFGQYVMGGSRQAPGKERELVAAISGIGGSTYYADSVKGRFTISRDNAKNTVYLQMNSLIPDDTAVYYCAVELYWYPGYDYWGQGTQVTVSS", "polyreactivity (PSR sort gate)": "low polyreactivity"}, {"sequence": "QVQLVESGGCLVQAGGSLRLSCAASGPTFSKANAMGWYRQAPGKERELVAAITDGGSTYADSVKGRFTISRDNAKNTVYLQMYSMKPEDTAVYYCAKDTEVFYDSSYDYWGHGTQVTVSS", "polyreactivity (PSR sort gate)": "low polyreactivity"}]}]}
